Source: the supplement of paper PMC10126150
± gives the standard deviation of the averaged measurements.

Tested on: ATP
Assay: switch fluorescence ratio, 500 uM ATP over buffer (Cy3 cluster intensity, sum of 5 cycles each) (fold (ratio)); higher = stronger signal-on switching upon ATP binding; sequences stand for … in TCGTCGGCAGCGTCAGATGTGTATAAGAGACAGTTTTTTTTTTTTTTTTTTTTTTTTT…TC
Conditions: aptamer strand: ATP DNA aptamer (quencher-CACCTGGGGGAGTATTGCGGAGGAAGG + anchor), 100 nM annealed; ATP concentration: 500 uM
Outline: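 After annealing to 100 nM quencher-labelled ATP aptamer, Cy3-labelled switching-strand clusters on a modified Illumina MiSeq flow-cell were imaged in selection buffer. A second image followed after 15 min with 500 uM ATP at 22 °C, and five such buffer/ATP cycles were done, each separated by NaOH stripping and re-annealing. The fluorescence ratio, averaged per switch-domain sequence, is summed target-cycle over summed buffer-cycle Cy3 intensity per cluster, with clusters outside 100-1000 RFU excluded.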
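Also: ATP exposure 15 min at 22 °C before imaging.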

Sequence	switch fluorescence ratio
TAGAGTCGTG	0.981 ± 0.027
TAGAGTTTGG	1 ± 0.045
TAGATAAGGC	0.981 ± 0.018
TAGATATGAG	1.009 ± 0.0012
TAGATCGGGG	1.008 ± 0.01
TAGATGCTTT	0.96461 ± 0.00038
TAGATGGGGC	0.967 ± 0.029
TAGATGTCAG	0.986 ± 0.016
TAGATGTGTT	1.01 ± 0.023
TAGATTAGGA	1.01 ± 0.036
TAGATTGTCT	1.01 ± 0.03
TAGATTTTGC	1.03 ± 0.027
TAGCAAGTG	1.04 ± 0.041
TAGCAGGGTT	0.9852 ± 0.0061
TAGCAGTCGA	1.09 ± 0.058
TAGCAGTTGG	0.988 ± 0.02
TAGCCATGTC	0.924 ± 0.053
TAGCCCTGTG	1.05 ± 0.014
TAGCCGGCCT	1.05 ± 0.025
TAGCCTATTT	0.975 ± 0.038
TAGCCTTACG	1.123 ± 0.0043
TAGCGAGTAT	1 ± 0.011
TAGCGATGGG	1.01 ± 0.017
TAGCGCTTTA	1.01 ± 0.017
TAGCGGGAGG	1.02 ± 0.024
TAGCGGGGCT	1.04 ± 0.043

Sequence	switch fluorescence ratio
TAGCTAGACG	1.01 ± 0.012
TAGCTAGCGT	1.01 ± 0.019
TAGCTGAGAC	1.162 ± 0.006
TAGCTGAGGT	1.03 ± 0.017
TAGCTGCAAA	1.05 ± 0.024
TAGCTGGCTG	0.986 ± 0.043
TAGCTGGGGA	1.01 ± 0.033
TAGCTGGGGG	0.995 ± 0.021
TAGCTTAACA	0.979 ± 0.018
TAGCTTCTCC	1.34 ± 0.033
TAGGAAAGGG	0.997 ± 0.027
TAGGAAGATG	1.02 ± 0.1
TAGGAAGCGT	0.9777 ± 0.0039
TAGGAAGGGT	0.997 ± 0.028
TAGGAGAGAC	0.998 ± 0.057
TAGGAGGCGG	0.958 ± 0.039
TAGGAGGGTG	1.01 ± 0.035
TAGGAGGTAC	1.01 ± 0.054
TAGGATGAGT	0.99997 ± 0.00035
TAGGATGTCT	1 ± 0.0021
TAGGATTACT	1.02 ± 0.014
TAGGCACAAC	1.15 ± 0.025
TAGGCAGGGG	1.08 ± 0.021
TAGGCCTCGA	0.985 ± 0.026
TAGGCGGTTT	0.9641 ± 0.00067
TAGGCGTGCG	0.976 ± 0.052

Sequence	switch fluorescence ratio
TAGGCTAGGG	0.9713 ± 0.0062
TAGGCTCCAA	1.01 ± 0.02
TAGGGAATAG	1.14 ± 0.12
TAGGGACGCC	1.031 ± 0.0046
TAGGGACGGC	1.07 ± 0.095
TAGGGAGAAT	0.992 ± 0.054
TAGGGAGGA	0.98 ± 0.022
TAGGGAGGTG	1.04 ± 0.053
TAGGGATAGC	0.985 ± 0.013
TAGGGATTTC	0.997 ± 0.019
TAGGGCACGA	0.97 ± 0.08
TAGGGCAGGT	1.01 ± 0.036
TAGGGCATCA	0.987 ± 0.042
TAGGGCTGCA	1.06 ± 0.079
TAGGGGAAGG	1.03 ± 0.05
TAGGGGACCG	0.991 ± 0.017
TAGGGGAGAC	1.06 ± 0.047
TAGGGGAGGT	1.01 ± 0.016
TAGGGGAGTG	1.02 ± 0.035
TAGGGGATCA	0.9839 ± 0.0036
TAGGGGCAGT	1.09 ± 0.14
TAGGGGGCTT	1.01 ± 0.018
TAGGGGGGTA	0.982 ± 0.035
TAGGGGGGTC	1 ± 0.066
TAGGGGGGTT	1 ± 0.04
TAGGGGTCCT	1.01 ± 0.046

Sequence	switch fluorescence ratio
TAGGGGTTAT	0.995 ± 0.015
TAGGGTATGT	1.01 ± 0.018
TAGGGTCGG	1 ± 0.053
TAGGGTCGT	0.9932 ± 0.0024
TAGGGTGGGA	0.99 ± 0.025
TAGGGTGGGC	0.954 ± 0.028
TAGGGTTAAT	1.03 ± 0.038
TAGGGTTGGG	1 ± 0.031
TAGGTAAGGG	0.99 ± 0.026
TAGGTAATTT	0.968 ± 0.041
TAGGTCAATC	1.026 ± 0.0029
TAGGTCCTTG	0.9851 ± 0.0061
TAGGTCGGGA	0.976 ± 0.02
TAGGTCTACG	1.02 ± 0.019
TAGGTCTTGC	1.01 ± 0.033
TAGGTGAGTT	1.04 ± 0.047
TAGGTGCCGT	1 ± 0.076
TAGGTGCTTC	1.029 ± 0.0099
TAGGTGGTCC	0.9892 ± 0.0014
TAGGTGGTGC	0.986 ± 0.045
TAGGTGTATG	1.01 ± 0.033
TAGGTGTGTT	0.981 ± 0.019
TAGGTGTTGG	1.02 ± 0.007
TAGGTGTTTG	0.999 ± 0.018
TAGGTTCGAG	0.985 ± 0.011
TAGGTTGAAT	0.984 ± 0.019

Sequence	switch fluorescence ratio
TAGGTTGCGA	0.996 ± 0.021
TAGGTTTGAA	0.9922 ± 0.0018
TAGGTTTGGT	1.018 ± 0.0063
TAGGTTTGTG	0.993 ± 0.03
TAGTACAGGC	1.06 ± 0.015
TAGTACTTTA	1.046 ± 0.0071
TAGTAGATTA	0.982 ± 0.012
TAGTAGTGAG	0.985 ± 0.013
TAGTATAGGA	0.973 ± 0.056
TAGTATGTGT	0.9576 ± 0.0043
TAGTCATGAG	0.981 ± 0.017
TAGTCATTGA	1.012 ± 0.0021
TAGTCGAGGG	0.971 ± 0.024
TAGTCGCGTA	1.05 ± 0.035
TAGTCTCTTG	1 ± 0.015
TAGTGAATTT	1 ± 0.07
TAGTGACAGC	1.04 ± 0.014
TAGTGAGGCG	0.926 ± 0.0095
TAGTGATGTT	0.983 ± 0.018
TAGTGATTGC	0.988 ± 0.025
TAGTGCAAGA	1.0334 ± 0.00052
TAGTGCCGGG	1.06 ± 0.07
TAGTGGACGG	0.986 ± 0.034
TAGTGGCTTA	0.98 ± 0.042
TAGTGGGCGA	1.01 ± 0.067
TAGTGGGGCA	0.966 ± 0.033

Sequence	switch fluorescence ratio
TAGTGGGGGA	0.995 ± 0.015
TAGTGGTCCA	0.98 ± 0.03
TAGTGTGGGC	0.999 ± 0.017
TAGTGTTTCT	1.01 ± 0.018
TAGTGTTTGT	0.979 ± 0.017
TAGTGTTTTT	0.9775 ± 0.0093
TAGTTAGGGG	1.01 ± 0.058
TAGTTATGTG	0.9513 ± 0.0043
TAGTTCAGGA	1.05 ± 0.036
TAGTTCGTTT	0.998 ± 0.016
TAGTTGAGTT	0.982 ± 0.029
TAGTTGATAA	0.996 ± 0.018
TAGTTGGAAG	1.021 ± 0.0048
TAGTTGGATG	1 ± 0.038
TAGTTGGGCT	0.961 ± 0.032
TAGTTGGGGA	1.03 ± 0.033
TAGTTGTTGT	0.981 ± 0.049
TAGTTTAATT	0.998 ± 0.015
TAGTTTCGGG	0.997 ± 0.05
TAGTTTTCTG	0.982 ± 0.017
TAGTTTTGTG	1.01 ± 0.062
TAGTTTTTGT	1.01 ± 0.049
TATAAAAACT	1.01 ± 0.021
